Assay results from patent US20130045305A1.
Values belong to the molecule of their own block, whether it stands above or below them.

Legend:
glutathione [1] = target: glutathione
Val-Gly [2] = target: Val-Gly
glutathione [3] = target: glutathione; remark: listed apart in the source
Val-Gly [4] = target: Val-Gly; remark: listed apart in the source

γ-EVG, µg 1^-1 OD600^-1, formed in cells cultured with 100 ppm γ-Glu-Val, strain S288C ura3Δ227/YEp24-PTDH3-GSH2 (µg 1^-1 OD600^-1) (γ-Glu-Val): 705
Molecule: Gsh2p (glutathione synthetase) of Saccharomyces cerevisiae (enzyme)

GSH (ppm) in the reaction mixture after reaction with γ-GTP, no Val-Gly added (glutathione [1]): 432 ppm
γ-Glu-Val-Gly (ppm) in the reaction mixture after reaction with γ-GTP, 4000 ppm Val-Gly added (Val-Gly [2]): 340 ppm
Molecule: γ-Glutamyltranspeptidase from equine kidney, Sigma, Code G9270-100UN (enzyme)

The remaining lines, values behind:

Molecule: Glutaminase Daiwa SD-C100S, Daiwa kasei (enzyme)
GSH (ppm) in the reaction mixture after reaction with glutaminase, no Val-Gly added (glutathione [3]): 3.1 ppm
γ-Glu-Val-Gly (ppm) in the reaction mixture after reaction with glutaminase, 4000 ppm Val-Gly added (Val-Gly [4]): 16 ppm

B1: Hgt1p of Saccharomyces cerevisiae (protein)
chain: MSTIYRESDSLESEPSPTPTTIPIQINMEEEKKDAFVKNIDEDVNNLTATTDEEDRDPESQKFDRHSIQEEGLVWKGDPTYLPNSPYPEVRSAVSIEDDPTIRLNHWRTWFLTTVFVVVFAGVNQFFSLRYPSLEINFLVAQVVCYPIGRILALLPDWKCSKVPFFDLNPGPFTKKEHAVVTIAVALTSSTAYAMYILNAQGSFYNMKLNVGYQFLLVWTSQMIGYGAAGLTRRWVVNPASSIWPQTLISVSLFDSLHSRKVEKTVANGWTMPRYRFFLIVLIGSFIWYWVPGFLFTGLSYFNVILWGSKTRHNFIANTIFGTQSGLGALPITFDYTQVSQAMSGSVFATPFYVSANTYASVLIFFVIVLPCLYFTNTWYAKYMPVISGSTYDNTQNKYNVTKILNEDYSINLEKYKEYSPVFVPFSYLLSYALNFAAVIAVFVHCILYHGKDIVAKFKDRKNGGTDIHMRIYSKNYKDCPDWWYLLLQIVMIGLGFVAVCCFDTKFPAWAFVIAILISLVNFIPQGILEAMTNQHVGLNIITELICGYMLPLRPMANLLFKLYGFIVMRQGLNLSRDLKLAMYMKVSPRLIFAVQIYATIISGMVNVGVQEWMMHNIDGLCTTDQPNGFTCANGRTVFNASIIWSLPKYLFSSGRIYNPLMWFFLIGLLFPLAVYAVQWKFPKFKFAKHIHTPVFFTGPGNIPPSTPYNYSLFFAMSFCLNLIRKRWRAWFNKYNFVMGAGVEAGVAISVVIIFLCVQYPGGKLSWWGNNVWKRTYDNDYKKFYTLKKGETFGYDKWW
intracellular content of γ-Glu-nVal-Gly on the dry weight cell, 100 ppm added (γ-Glu-nVal-Gly): 2.84%
